# Substitutions are numbered along the chain they refer to. Read-outs that look alike come from different tables or passages of the source.
# T1: TfR2 (transferrin receptor 2) (UniProt Q9UP52 105-801, limits assumed)
# T1 sequence (looked up): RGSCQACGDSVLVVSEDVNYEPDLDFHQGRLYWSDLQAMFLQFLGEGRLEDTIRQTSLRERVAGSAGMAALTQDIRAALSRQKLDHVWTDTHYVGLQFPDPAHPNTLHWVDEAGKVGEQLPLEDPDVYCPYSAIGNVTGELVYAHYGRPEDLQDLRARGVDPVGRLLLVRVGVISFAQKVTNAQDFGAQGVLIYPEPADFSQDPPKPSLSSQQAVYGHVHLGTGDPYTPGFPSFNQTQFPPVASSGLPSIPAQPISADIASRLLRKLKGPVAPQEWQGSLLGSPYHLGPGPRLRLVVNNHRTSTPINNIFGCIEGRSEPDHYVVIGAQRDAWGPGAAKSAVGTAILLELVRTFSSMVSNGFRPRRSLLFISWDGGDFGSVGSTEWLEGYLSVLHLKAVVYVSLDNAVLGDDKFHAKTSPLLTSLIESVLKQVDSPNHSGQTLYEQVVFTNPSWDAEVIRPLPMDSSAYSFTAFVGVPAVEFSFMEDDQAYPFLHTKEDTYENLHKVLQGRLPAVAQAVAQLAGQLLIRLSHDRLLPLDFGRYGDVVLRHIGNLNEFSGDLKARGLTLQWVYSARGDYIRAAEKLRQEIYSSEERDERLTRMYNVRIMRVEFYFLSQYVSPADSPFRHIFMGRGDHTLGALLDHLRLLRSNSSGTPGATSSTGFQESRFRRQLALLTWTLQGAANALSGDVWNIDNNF
# B1: hTfR1.IgG2 mAb-SSB siRNA conjugate (DAR1) (antibody, DAR 1, V domains shown)
# VH: QVQLQQPGAELVKPGASVKLSCKASGYTFTNYWMHWVKQRPGQGLEWIGEINPINGRSNYGERFKTKATLTVDKSSSTAYMQLSSLTSEDSAVYYCARGTRAMHYWGQGTSVTVSS
# VL: DIQMTQSPASLSVSVGETVTITCRTSENIYNNLAWYQQKQGKSPQLLVYAATNLADGVPSRFSGSGSGTQYSLKINSLQSEDFGNYYCQHFWGTPLTFGAGTKLELKR
# modifications: SSB siRNA duplex joined through a bis-maleimide (BisMal) linker to TCEP-reduced cysteines, DAR1; chain and positions not stated; remaining free cysteines capped with N-ethylmaleimide
# notes: also called TfR-SSB DAR 1; conjugated hTfRL.IgG2 mAb
# B2: hTfR1.IgG2 mAb (chimeric human IgG2 anti-hTfR1 antibody) (antibody, V domains shown)
# VH: B1 VH
# VL: B1 VL
# notes: The heavy variable region is printed there only as images; also called hTfRL.IgG2 mAb; TfR1-IgG2 mAb chimera
# B3: 13E4-Variant 15ii (antibody, human IgG1, kappa, L234A L235A)
# heavy: QVQLVQSGAEVKKPGASVKVSCKASGYTFTNYWMHWVRQAPGQGLEWMGEINPIQGRSNYAEKFQGRVTLTVDTSSSTAYMELSSLRSEDTATYYCARGTRAMHYWGQGTLVTVSSASTKGPSVFPLAPSSKSTSGGTAALGCLVKDYFPEPVTVSWNSGALTSGVHTFPAVLQSSGLYSLSSVVTVPSSSLGTQTYICNVNHKPSNTKVDKRVEPKSCDKTHTCPPCPAPEAAGGPSVFLFPPKPKDTLMISRTPEVTCVVVDVSHEDPEVKFNWYVDGVEVHNAKTKPREEQYNSTYRVVSVLTVLHQDWLNGKEYKCGVSNKALPAPIEKTISKAKGQPREPQVYTLPPSREEMTKNQVSLTCLVKGFYPSDIAVEWESNGQPENNYKTTPPVLDSDGSFFLYSKLTVDKSRWQQGNVFSCSVMHEALHNHYTQKSLSLSPG
# light: DIQMTQSPSSLSASVGDRVTITCRTSENIYSNLAWYQQKPGKAPKLLIYAGTNLADGVPSRFSGSGSGTDYTLTISSLQPEDFANYYCQHFWGTPLTFGGGTKVEIKRTVAAPSVFIFPPSDEQLKSGTASVVCLLNNFYPREAKVQWKVDNALQSGNSQESVTEQDSKDSTYSLSSTLTLSKADYEKHKVYACEVTHQGLSSPVTKSFNRGEC
# notes: Humanized hIgG1 with Fc mutations; also called hIgG1 TfR-Var15ii
# B4: 13E4-Variant 15iii (antibody, human IgG1, kappa, L234A L235A)
# heavy: B3 heavy with G321K, L327R
# light: B3 light
# notes: Humanized hIgG1 with Fc mutations; also called hIgG1 TfR-Var15iii
# Assays:
# [1] = biological target: T2, recombinant human transferrin receptor protein (Sino Biological 11020-H07H) (human, UniProt P02786 89-760); experiment: ELISA on plate-coated recombinant human TfR1; fit: specific binding with Hill slope
# T2 construct: Bought protein coated on ELISA plates; also called recombinant human TfR1; human TfR1
# Experimental: (§1) 100 μL of Superblock (ThermoFisher PI-37535) was added to each well and incubated for 1 hour at room temperature. The wash step was repeated before the addition of the samples. Samples were added at concentrations up to 10 nM, 50 μL/well. Plates were incubated for another hour at room temp and wash step repeated. Secondary antibody (Peroxidase AffiniPure Goat Anti-Human IgG, Fcγ Fragment Specific, Jackson Immunoresearch, 109-035-098) was diluted 1:5000 in Superblock and 50 μL/well added. Plates were incubated for 1 hour at room temperature and washed one more time. Binding was measured by the addition of 50 μL of 1-Step™ Ultra TMB-ELISA (ThermoFisher, 34028), incubated for 5 minutes, and the reaction was stopped with the addition of 25 μL of Stop Solution 2N sulfuric Acid (R&D Systems DY994). Absorbance was measured at 450 nm, with reference wavelength 570 nm subtracted. Binding constants were determined using GraphPad Prism Specific Binding with Hill Slope.
# (§2) Half-well high-binding 96-well plates (Costar #3690) were coated with recombinant human transferrin receptor protein (Sino Biological 11020-H07H) or recombinant cyno transferrin receptor protein (Sino Biological 90253-C07H) at 1 ng/μL in PBS (Gibco 14190) and incubated overnight at 4° C. […] Absorbance was measured at 450 nm, with reference wavelength 570 nm subtracted. […]
# [2] = biological target: T3, recombinant cyno transferrin receptor protein (Sino Biological 90253-C07H) (cyno, UniProt H9EXL1 89-760 (rhesus entry)); experiment: ELISA on plate-coated recombinant cyno TfR1 (CD71); fit: specific binding with Hill slope
# T3 construct: Bought protein coated on ELISA plates; also called recombinant cyno TfR1; cynoTfR1
# Experimental: as §1, §2
# [3] = biological target: T1, TfR2 (transferrin receptor 2); experiment: A450 plate assay on TfR2 (method not described in the text)
# [4] = biological target: T4, hTfR (human transferrin receptor, source and construct not stated) (human, UniProt P02786 89-760, limits assumed); experiment: ELISA, biotinylated antibody on hTfR captured by plate-coated human holo-transferrin (Tf+TfR); fit: specific binding with Hill slope
# Experimental: (§3) Antibodies were biotinylated using 50 fold molar excess of EZ-Link No weigh NHS-Biotin (Thermo Scientific A39256) following manufacturer's instructions. Half-well high-bind plates (Costar #3690) were coated with 500 ng/mL purified human holo-transferrin (R&D Systems 2914-HT) in PBS at 4° C. overnight. For comparison, plates were coated directly with hTfR. Plates were washed four times with 100 μL of Tris buffered saline+Tween (20×TBST, Cell Signaling 9997S). 100 μL of Superblock (ThermoFisher PI-37535) was added to each well and incubated for 1 hour at room temperature. The wash step was repeated before the addition of the hTfR (200 ng/mL in 25 μl) to the transferrin plates, or Superblock to the hTfR plates, and incubated for 30 minutes. Biotinylated antibodies were diluted to 20 nM for the high concentration and added to the plates with 3-fold serial dilution. 25 μl/well was added to the 25 μl already in the plate. Plates were incubated for 1 hour, and wash step was repeated. Streptavidin-HRP (R&D Systems DY998) was added following recommended dilution on the package insert, and a final wash step was done. Binding was measured by the addition of 50 μL of 1-Step™ Ultra TMB-ELISA (ThermoFisher, 34028), incubated for 5 minutes, and the reaction was stopped with the addition of 25 μL of Stop Solution 2N sulfuric Acid (R&D Systems DY994). Absorbance was measured at 450 nm, with reference wavelength 570 nm subtracted. Binding constants were determined using GraphPad Prism Specific Binding with Hill Slope. Change in antibody binding constants in the presence versus absense of transferrin is considered relative to the commercially available antibody which is known to have an overlapping epitope with transferrin (AF2474, R&D Systems).
# [5] = biological target: T4, hTfR (human transferrin receptor, …); experiment: ELISA; ratio of the Kd on HFE-captured hTfR to the Kd on directly coated hTfR
# [6] = biological target: T4, hTfR (human transferrin receptor, …); experiment: ELISA; ratio of the Kd on transferrin-captured hTfR to the Kd on directly coated hTfR
# Experimental: as §3
# [7] = biological target: T4, hTfR (human transferrin receptor, …); experiment: ELISA, biotinylated antibody on hTfR captured by plate-coated HFE (HFE+TfR); fit: specific binding with Hill slope
# [8] = biological target: T4, hTfR (human transferrin receptor, …); experiment: SPR (BioRad ProteOn XPR36), mAb captured on Protein A, hTfR as analyte, 25 C
# Experimental: The binding kinetics of nine exemplary humanized anti-TfR antibodies and the parent chimeric antibody were characterized. Studies were run on a BioRad ProteOn XPR36 optical biosensor using a GLM sensor chip coated with Protein A for mAb capture. Running buffer included 10 mM EPES, 150 mM NaCl, pH 7.4 with 0.05 tween-20 with 0.2 mg/ml BSA. Data were collected at 25 degrees C. All mAbs were diluted into running buffer to 2 ug/ml based on the stock concentration provided. Each was then captured for 40 seconds over a Protein A surface.
# hTfR (100 ug) was dissolved into […] of water to yield a 4.3 uM stock concentration. hTfR was dilted to 43 nM as the highest concentration and tested in a 3 fold dilution series. hTfR was injected at 200 ul/min for 2 minutes followed by a one-hour dissociation phase.
# [9] = biological target: T3, recombinant cyno transferrin receptor …; experiment: ELISA on plate-coated recombinant cyno TfR1 (CD71); fit: specific binding with Hill slope; remark: listed apart in the source
# Experimental: as §1, with “Half-well high-binding 96-well plates (Costar #3690) were coated with recombinant human transferrin receptor protein (Sino Biological 11020-H07H) or recombinant cyno transferrin receptor protein (Sino Biological 90253-C07H) at 1 ng/μL in PBS (Gibco 14190) and incubated overnight at 4° C. Plates were washed four times with 100 μL of Tris buffered saline+Tween (20×TBST, Cell Signaling 9997S). 100” for “100”
# [10] = biological target: T2, recombinant human transferrin receptor …; experiment: ELISA on plate-coated recombinant human TfR1 (CD71); fit: specific binding with Hill slope (row labels blank in the lower block; row taken by the order Bmax, h, Kd)
# Experimental: as §1, with “Half-well high-binding 96-well plates (Costar #3690) were coated with recombinant human transferrin receptor protein (Sino Biological 11020-H07H) or recombinant cyno transferrin receptor protein (Sino Biological 90253-C07H) at 1 ng/μL in PBS (Gibco 14190) and incubated overnight at 4° C. Plates were washed four times with 100 μL of Tris buffered saline+Tween (20×TBST, Cell Signaling 9997S). 100” for “100”
# [11] = biological target: T4, hTfR (human transferrin receptor, …); experiment: ELISA, biotinylated antibody on hTfR captured by plate-coated HFE (HFE+TfR)
# T2 sequence (P02786 89-760 limits assumed): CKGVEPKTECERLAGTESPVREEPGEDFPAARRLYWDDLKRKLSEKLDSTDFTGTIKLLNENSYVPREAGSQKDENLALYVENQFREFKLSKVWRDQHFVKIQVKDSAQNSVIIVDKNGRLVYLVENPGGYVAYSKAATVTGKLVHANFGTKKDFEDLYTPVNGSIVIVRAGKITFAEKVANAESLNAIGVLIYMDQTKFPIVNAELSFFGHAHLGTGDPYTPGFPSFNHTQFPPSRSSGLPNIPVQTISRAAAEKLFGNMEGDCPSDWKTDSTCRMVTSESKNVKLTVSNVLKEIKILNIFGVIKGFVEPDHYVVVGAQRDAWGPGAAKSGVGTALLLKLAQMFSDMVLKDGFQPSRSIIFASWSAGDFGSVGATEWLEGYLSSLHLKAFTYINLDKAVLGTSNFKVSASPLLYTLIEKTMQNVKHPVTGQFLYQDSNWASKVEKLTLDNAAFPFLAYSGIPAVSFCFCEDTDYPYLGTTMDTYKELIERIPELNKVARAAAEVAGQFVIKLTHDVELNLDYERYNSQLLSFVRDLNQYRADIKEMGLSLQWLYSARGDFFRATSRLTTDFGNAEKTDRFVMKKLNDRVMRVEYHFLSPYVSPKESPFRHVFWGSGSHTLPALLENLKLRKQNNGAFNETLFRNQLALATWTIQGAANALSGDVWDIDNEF
# T4 sequence (P02786 89-760 limits assumed): as above
# T3 sequence (chain, as listed by the source C07H C07H): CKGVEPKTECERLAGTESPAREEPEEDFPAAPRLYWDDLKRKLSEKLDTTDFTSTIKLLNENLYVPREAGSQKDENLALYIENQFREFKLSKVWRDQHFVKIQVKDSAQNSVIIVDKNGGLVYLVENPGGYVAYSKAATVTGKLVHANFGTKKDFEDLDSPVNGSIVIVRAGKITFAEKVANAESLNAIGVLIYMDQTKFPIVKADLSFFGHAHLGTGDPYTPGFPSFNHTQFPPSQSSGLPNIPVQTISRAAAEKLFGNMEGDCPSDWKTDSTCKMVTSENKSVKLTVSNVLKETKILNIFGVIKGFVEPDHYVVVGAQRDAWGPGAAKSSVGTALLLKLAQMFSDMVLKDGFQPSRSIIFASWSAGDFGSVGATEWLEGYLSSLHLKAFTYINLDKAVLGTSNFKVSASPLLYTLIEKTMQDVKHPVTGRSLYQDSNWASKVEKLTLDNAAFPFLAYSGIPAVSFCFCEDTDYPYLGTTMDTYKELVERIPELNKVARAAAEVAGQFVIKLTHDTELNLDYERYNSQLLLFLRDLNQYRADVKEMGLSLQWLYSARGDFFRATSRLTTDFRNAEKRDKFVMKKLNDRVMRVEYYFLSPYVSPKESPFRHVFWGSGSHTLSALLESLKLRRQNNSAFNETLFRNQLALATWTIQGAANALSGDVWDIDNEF
Binder,Kd [1],Kd [2],binding result [3],Bmax [4],Kd [4],h [4],Kd(HFE+TfR)/Kd(TfR) [5],Kd(Tf+TfR)/Kd(TfR) [6],Bmax [7],Kd [7],h [7],Kd [8],koff [8],kon [8],Bmax [9],Kd [9],h [9],Bmax [10],Kd [10],h [10],also measured
B1,0.00318 nM,0.00499 nM,,,,,,,,,,,,,,,,,,,
B2,0.00322 nM,0.00487 nM,,,,,,,,,,,,,,,,,,,
B3,,,no binding (tested: 1000 nM),3.52 A450,0.0849 nM,1.46,10.2,2.5,2.79 A450,0.346 nM,1.28,0.0131 nM,9.14e-06 s⁻¹,697000 M⁻¹ s⁻¹,94.4 % max binding,0.018 nM,1.53,93.7 % max binding,0.00987 nM,1.25,
B4,,,no binding (tested: 1000 nM),3.5 A450,0.0604 nM,1.52,8.5,2.4,1.81 A450,0.213 nM,1.45,0.00999 nM,6.94e-06 s⁻¹,695000 M⁻¹ s⁻¹,96.4 % max binding,0.0103 nM,1.54,96.5 % max binding,0.0063 nM,1.35,EC50 (read off the curve) [11]: ~0.2 nM
